Patent US8241610B2, “Adjuvant combinations of liposomes and mycobacterial lipids for immunization compositions and vaccines” (Statens Serum Institut, priority 2003, dated 2012)

Key:
blood lymphocytes = assay: IFN-gamma release from blood lymphocytes of immunized mice re-stimulated in vitro with antigen (ELISA); details: mouse, in vivo, sc
antigen-specific IgG = tested on: antigen-specific IgG; set-up: species or system mice; details: mouse, in vivo, sc

For “Tetanus toxoid: Tetanus toxoid from Statens Serum Institut; given in total lipids/DDA”, the “Immune response: release of IFN-gamma from blood lymphocytes” value (blood lymphocytes) was 52500 ± 13500.

B1: OVA: Ovalbumin, Sigma Aldrich; given in total lipids/DDA (protein, UniProt P01012 2-386, looked up)
Ovalbumin: GSIGAASMEFCFDVFKELKVHHANENIFYCPIAIMSALAMVYLGAKDSTRTQINKVVRFDKLPGFGDSIEAQCGTSVNVHSSLRDILNQITKPNDVYSFSLASRLYAEERYPILPEYLQCVKELYRGGLEPINFQTAADQARELINSWVESQTNGIIRNVLQPSSVDSQTAMVLVNAIVFKGLWEKAFKDEDTQAMPFRVTEQESKPVQMMYQIGLFRVASMASEKMKILELPFASGTMSMLVLLPDEVSGLEQLESIINFEKLTEWTSSNVMEERKIKVYLPRMKMEEKYNLTSVLMAMGITDVFSSSANLSGISSAESLKISQAVHAAHAEINEAGREVVGSAEAGVDAASVSEEFRADHPFLFCIKHIATNAVLFFGRCVSP
B1 was tested, and the “Immune response: release of IFN-gamma from blood lymphocytes” value (blood lymphocytes) was 793 ± 81, the “IgG1, antigen-specific levels (midpoint titres)” value (antigen-specific IgG) was 2500 and the “IgG2a, antigen-specific levels (midpoint titres)” value (antigen-specific IgG) was <100.
